Data on seven molecules can be found in patent US5911991A, “Malarial binding site in duffy blood group protein” (New York Blood Center, Inc., priority 1996, dated 1999).

Several values for one entry are separate records, joined by “and”; a condition that tells them apart may be missing. Equal values may be shown once. Read-outs that look alike come from different tables or passages of the source. Ends that are not written are not given here.

The target in experiment [1] is T1, Region II of P. falciparum EBA-175 (Plasmodium falciparum, UniProt P19214).
T1 construct: expressed in transfected cells; host or cells: Cos7 cells (ATCC CRL 1651)
Kind of experiment: cell-based.

The test system of experiment [2] is Region II of the P. knowlesi Duffy antigen binding protein (α). The settings on record: read-out: concentration for 50% inhibition of erythrocyte binding, human erythrocytes.
Source text: To study the ability of peptides from the Duffy antigen to inhibit erythrocyte binding, a binding assay using the transfected Cos cells was employed, based on a method previously described (Chitnis et al. 1994). This method measures interaction between the malarial Duffy antigen binding ligand expressed by the Cos cells and Duffy protein on erythrocytes. The ability of an analyte to interfere with the cellular binding can be quantitated by comparing the number of Cos cells surrounded by rosettes of erythrocytes in the control versus the number of rosettes formed in the presence of the analyte.
Transfected Cos cells were preincubated for 1 h in a 5% CO2 incubator at 37° C. in 0.9 mL of complete Dulbecco's modified Eagle's medium (cDMEM) containing a series of concentrations (0 to 100 μM) of the peptides. One hundred microliters of human or rhesus erythrocytes at a hematocrit of 10% were added to wells containing the peptides and allowed to bind over 2 h at 37° C. in a 5% CO2 incubator. Non-adherenterythrocytes were removed by washing the Cos7 cells then with PBS. The numbers of rosettes were scored in 20 fields of view at a magnification of 40× using an inverted microscope. Inhibition curves were drawn for three independent experiments and used to determine concentrations of the peptides required to achieve 50% inhibition. […]
For experiment [3], the target named is Region II of the P. knowlesi β protein expressed on the Cos7 cell surface (Plasmodium knowlesi; Herpes simplex virus) (UniProt P50493).
Experiment [4] concerns the target deglycosylated rhesus Duffy blood group antigen on N-glycanase-treated rhesus erythrocytes (rhesus monkey) (UniProt Q95LF2).
In experiment [5] the target is rhesus Duffy blood group antigen on normal rhesus erythrocytes (rhesus monkey) (UniProt Q95LF2).
In experiment [6] the test system is Region II of the P. knowlesi Duffy-binding ligand (α). Kind of experiment: MGSA inhibition of rhesus erythrocyte binding, P. knowlesi α Region II. The experiment is classed as cell-based, Plasmodium knowlesi.
For experiment [7], the system named is Region II of the P. vivax Duffy antigen binding protein. Description: MGSA inhibition of N-glycanase-treated rhesus erythrocyte binding, P. vivax Region II. The experiment is classed as cell-based, Plasmodium vivax. Here is the method:
Blood was collected in 10% citrate/phosphate/dextrose (CPD) (Baxter, Deerfield, Ill.) and stored at 4° C. for up to four weeks. Standard blood banking methods using two antisera (anti-Fya and anti-Fyb) were used to determine the Duffy phenotypes. Duffy positive erythrocytes used in the binding assays had the Fy(a+b+) phenotype. Erythrocytes were washed three times in RPMI 1640 (GIBCO BRL) and resuspended to a hematocrit of 10% in RPMI 1640 for use in the erythrocyte binding assays. Washed human and rhesus erythrocytes were treated with neuraminidase as described earlier (Comus et al. 1985). Human and rhesus erythrocytes were deglycosylated with the N-glycanase, peptide-N-glycosidase F from Flavobacterium meningosepticum (Oxford Glycosystems). Washed erythrocytes (100 μL) were incubated with mixing for 1 h at 37° C. in 500 μL of PBS containing 10 units of N-glycanase and reaction buffer supplied by the manufacturer. The erythrocytes were washed extensively in PBS to remove the enzyme and stop the deglycosylation.
To study the efficacy of the chemokine MGSA in inhibiting binding, erythrocytes were preincubated in media containing different concentrations of MGSA (0 to 1000 nM) for 1 h at room temperature before they were used in erythrocyte binding assays as described earlier (Su et al. 1995). […]

The next experiment deals with P. knowlesi β Region II. Kind of experiment: MGSA inhibition of N-glycanase-treated rhesus erythrocyte binding, P. knowlesi β Region II. The experiment is classed as cell-based, Plasmodium knowlesi. Conditions: rhesus erythrocytes, read-out: 50% Inhibition Conc.
The test system of the next experiment is P. vivax Region II. The settings on record: previously shown (Horuk et al. 1993; Chitnis et al. 1994); cited from earlier work.
For experiment [8], the target named is T2, Duffy blood group antigen (Homo sapiens, UniProt Q16570).
T2 sequence (Q16570 1-336): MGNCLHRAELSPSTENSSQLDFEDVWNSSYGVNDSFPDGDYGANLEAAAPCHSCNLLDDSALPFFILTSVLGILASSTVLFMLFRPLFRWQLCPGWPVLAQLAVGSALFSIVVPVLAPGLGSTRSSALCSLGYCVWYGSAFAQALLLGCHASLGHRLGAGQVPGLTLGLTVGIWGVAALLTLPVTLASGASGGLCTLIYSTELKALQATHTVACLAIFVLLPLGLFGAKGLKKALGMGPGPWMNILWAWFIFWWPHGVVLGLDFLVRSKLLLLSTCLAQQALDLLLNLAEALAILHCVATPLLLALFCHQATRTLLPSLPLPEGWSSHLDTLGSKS
Conditions: previously shown (Horuk et al. 1993; Chitnis et al. 1994); cited from earlier work.

Experiment [9] has as its target T3, Region II of the P. knowlesi Duffy antigen binding protein (alpha) expressed on the Cos7 cell surface (Plasmodium knowlesi; Herpes simplex …, UniProt P22545).
T3 sequence: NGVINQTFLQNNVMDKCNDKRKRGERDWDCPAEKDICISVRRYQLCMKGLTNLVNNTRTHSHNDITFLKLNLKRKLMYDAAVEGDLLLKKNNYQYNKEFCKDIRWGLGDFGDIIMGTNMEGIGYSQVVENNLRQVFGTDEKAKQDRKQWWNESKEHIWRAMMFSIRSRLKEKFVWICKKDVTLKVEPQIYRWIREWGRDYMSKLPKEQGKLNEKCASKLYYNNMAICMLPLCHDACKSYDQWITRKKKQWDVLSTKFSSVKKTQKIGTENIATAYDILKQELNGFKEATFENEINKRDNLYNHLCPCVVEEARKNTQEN

Experiment [10] deals with Region II of the P. vivax Duffy antigen-binding protein (DABP) expressed on the Cos7 cell surface (Plasmodium vivax; Herpes simplex virus, UniProt P22290).
Experiment [11] deals with Rubinstein anti-Fy6 antibody. Kind of experiment: Binding of the Rubinstein anti-Fy6 antibody to Duffy peptides (ELISA). More on the design: species or system murine. For orientation: An ELISA detects its analyte on a solid surface through an enzyme-linked reagent.
Experiment [12] deals with T3, Region II of the P. knowlesi Duffy …. This is another data set of the same source.
The target in experiment [13] is Region II of the P. knowlesi β protein expressed on the Cos7 cell surface (Plasmodium knowlesi; Herpes simplex …, UniProt P50493).

Chain of Region II of the P. vivax Duffy antigen binding protein (P22290 211-521): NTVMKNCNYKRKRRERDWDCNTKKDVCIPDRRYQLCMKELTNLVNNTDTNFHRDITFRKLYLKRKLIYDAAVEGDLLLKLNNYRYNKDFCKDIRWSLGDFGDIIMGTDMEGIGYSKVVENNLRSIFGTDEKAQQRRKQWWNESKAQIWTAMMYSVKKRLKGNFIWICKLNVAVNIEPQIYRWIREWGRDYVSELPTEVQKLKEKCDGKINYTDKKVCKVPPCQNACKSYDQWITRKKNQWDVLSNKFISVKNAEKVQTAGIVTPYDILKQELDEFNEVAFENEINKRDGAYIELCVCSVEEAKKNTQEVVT
Chain of P. vivax Region II (P22290 211-521): as above

For the molecule “AELSPSTENSSQLDFEDVWNSSYGVNDSFPDGDYD [HPEP35]”, the IC50 in [1] is above 100 µM; in [2], 4.9 ± 2.3 µM.
In experiment [1], “AELSPSTQNSSQLNSDLWNFSYDGNDSFPDVDYD [RHPEP34]” had an IC50 above 100 µM.
For the molecule “melanoma growth stimulating activity (MGSA) (from UniProt P09341) (ligand)”, the IC50 in experiment [3] was above 1000 nM; in experiment [4], 5 nM and 6 nM; in experiment [5], 5 nM.
With “melanoma growth stimulating activity [MGSA]”, the “inhibition of binding of rhesus erythrocytes to Cos cells expressing Region II of P. knowlesi α” value in experiment [6] (in words) is reported as “inhibit”. Also, the IC50 in [6] (rhesus erythrocytes, treatment none, P. knowlesi α, read-out: 50% Inhibition Conc.) was 5 nM; in experiment [7] (rhesus erythrocytes, N-glycanase treated, P. vivax DABP, separate experiments, read-out: 50% Inhibition Conc.), 5 nM and 6 nM; at P. knowlesi β Region II, above 1000 nM. In experiment [7] (in words, 50% inhibition at nanomolar concentrations), the “inhibition of binding of N-glycanase-treated rhesus erythrocytes to P. vivax Region II” value was “inhibits”. For the same molecule, in the experiment on P. vivax Region II, the “inhibition of binding of P. vivax Region II to Duffy-positive human erythrocytes” value is recorded as “inhibit”. The “binding to the Duffy blood group antigen” value in experiment [8] is on record as “binds”.

B1: HPEP35 (peptide)
peptide: AELSPSTENSSQLDFEDVWNSSYGVNDSFPDGDYD
With B1, the IC50 in experiment [9] turned out to be 4.9 µM; in [10] it was 2900 nM.

B2: MASSGYVLQAELSPSTENSSQLDFEDVWNSSYGVNDSFPDGDYDANLEAAAPCHSCNLLDDSALPF (peptide)
chain: MASSGYVLQAELSPSTENSSQLDFEDVWNSSYGVNDSFPDGDYDANLEAAAPCHSCNLLDDSALPF
notes: N-terminal peptide of gp-Fyα containing the HPEP35 domain
Take B2: the “binding in an ELISA assay (Rubinstein antibody)” value in [11] was “bind”.

B3: RHPEP34 (peptide)
peptide: AELSPSTQNSSQLNSDLWNFSYDGNDSFPDVDYD
As for B3, the IC50 in experiment [10] was 2100 nM; in experiment [12], 5.5 µM; in experiment [13] it was above 100 µM.
